Patent US8748572B2, “RNase a peptides, fragments and uses thereof” (priority 2006, dated 2014)

B1: rRNase A-1: recombinant carboxy-terminal FLAG-tagged Gallus gallus leukocyte RNase A-1, SEQ ID NO: 2, GenBank DQ395275 (protein, listed as Gallus gallus)
chain: VPTYQDFLRTHVDFPKTSFPNIAAYCNVMMVRRGINVHGRCKSLNTFVHTDPRNLNTLCINQPNRALRTTQQQLPVTDCKLIRSHPTCSYTGNQFNHRVRVGCWGGLPVHLDGTFP
modifications: C-terminal FLAG tag
B2: rRNase A-2: recombinant carboxy-terminal FLAG-tagged Gallus gallus leukocyte RNase A-2, SEQ ID NO: 4, GenBank DQ395276 (protein, listed as Gallus gallus)
chain: VPTYQDFLYKHMDFPKTSFPSNAAYCNVMMVRRGMTAHGRCKSFNTFVHTDPRNLNTLCINQPDQALRTTRRHFRITDCKLIRSHPTCRYSGNQFNRRVRVGCRGGLPVHLDGTSP
modifications: C-terminal FLAG tag

What was measured:
yeast tRNA = experiment: ribonuclease assay with yeast tRNA substrate; type: biochemical; settings: for Optimum pH for RNase activity: 50 pmol rRNase, 40 mM sodium phosphate buffers pH 5.5 to 8.0; for Km / kcat: 40 mM sodium phosphate buffer
Procedure: (§1) FIGS. 4 A-D are graphs showing the ribonucleolytic activity of recombinant leukocyte RNases. (A) is a graph showing the optimum pH for RNase activity. Enzymatic activity was determined with 50 pmol rRNase A-1 (open squares) and rRNase A-2 (closed circles) that was incubated with 250 μg/ml yeast tRNA in 40 mM sodium phosphate buffer at the pHs indicated. Measurements of A260 per time were converted to pmol/s as described in […] and Methods. (B) is a graph showing the initial rates for RNase activity. Enzymatic activity was determined as described in (A) with 40 mM sodium phosphate buffer, pH 7.0. (C) is a graph showing the substrate preference for RNase activity. 50 pmol rRNase A-1 (left panel) and rRNase A-2 (right panel) proteins were incubated with 250 μg/ml of poly U (open squares), poly C (closed circles), poly A (open diamonds), poly G (open triangles) and poly I (open circles) in 40 mM sodium phosphate buffers, pH 7.0. A260 was measured after precipitation of undigested RNA at each of the time points indicated. (D) is two panels of graphs showing interaction of RNase with human placental RNase inhibitor (hPR1). RNase activity was measured with […] of bovine pancreatic RNase (left) or […] rRNase A-1 and rRNase A-2 (right) with 250 μg/ml of yeast tRNA as substrate with (+) or without (−) 200 U human placental RNase inhibitor (hPR1) in 40 mM sodium phosphate buffer, pH 7.0. The hPR1 was added to the RNases in buffer 5 min prior to initiation of RNase assay by addition of substrate. *p<0.01.
Next, the enzymatic activity of the two recombinant leukocyte RNases was characterized. Optimum pH was determined as 7.0 with 50 pmol rRNase A-1 or A-2, with 200 μg yeast tRNA substrate in 40 mM sodium phosphate buffers ranging from pH 5.5 to 8.0, as shown in FIG. 4A. […] Enzymatic activity was measured using 10 pmol rRNase A-1 or rRNase in 40 mM sodium phosphate buffer, pH 7.0. Conversion from A260 to pmol ribonucleotide product was carried out as described in reference 29 and in the Methods.
(§2) The ribonuclease (RNase) assay with yeast tRNA substrate has been described in detail elsewhere. In this study, 10 μL of a 20 mg/ml solution of yeast tRNA, polyuridylic acid (poly U), polyadenylic acid (poly A), polycytidylic acid (poly C), polyguanylic acid (poly G), or polyinosinic acid (poly I) (Sigma-Aldrich) were added to 800 μl of 40 mM sodium phosphate buffer, pH 7.0 containing recombinant FLAG-tagged chicken RNase protein. In experiments in which the pH optimum was to be determined, 40 mM sodium phosphate buffers of pH 5.0, 5.5, 6.0, 6.5, […] or 8.0 were used instead of the buffer of pH 7.0. In some experiments, 200 U human placental RNase inhibitor (Boehringer Mannheim) were added prior to the addition of the tRNA substrate. Conversion of units A260 per unit time to pmol/s were performed as described in [29], based on the following conversion factors: the average molecular weight of a molecule of tRNA is 28,100 (75-90 ribonucleotides/tRNA molecule×341 MW per ribonucleotide) with an A260 of 1.0 corresponding to 40 μg of RNA.

[1] = system: poly U, poly C, poly A, poly G, poly I, double-stranded RNA; experiment: ribonuclease assay, substrate preference (polyribonucleotides); type: biochemical; settings: 50 pmol rRNase, pH 7.0; for hydrolysis of poly U: 250 μg/ml poly U
Procedure: as §1, §2

| Molecule | Optimum pH for RNase activity (yeast tRNA) | Km (yeast tRNA; pH 7.0) [µM] | kcat (yeast tRNA; pH 7.0) [s⁻¹] | hydrolysis of poly U [1] | polyribonucleotides other than poly U as substrates ([1]; 250 μg/ml substrate) | Km, times lower than that for RNase A-1 (yeast tRNA; pH 7.0) [times] | kcat, times lower than that for RNase A-1 (yeast tRNA; pH 7.0) [times] | cleavage of poly C and poly A ([1]; 250 μg/ml substrate) |
| --- | --- | --- | --- | --- | --- | --- | --- | --- |
| B1 | 7.0 | 17.2 | 2.61 | hydrolyzed poly U RNA, at initial rates that were roughly equivalent to one another | poor substrates | – | – | – |
| B2 | 7.0 | 0.5 | 0.056 | hydrolyzed poly U RNA, at initial rates that were roughly equivalent to one another | – | 34 | 50 | cleaved poly C and poly A, although at initial rates that were lower than those observed for poly U |
